# How the values were obtained:
# [1] = biological target: T1, CD4 on HeLa-CD4 cells (Homo sapiens, UniProt P01730); experiment: Competition of Salp15488 binding to HeLa-CD4 cells; details: Salp15 or lysozyme 0.5 mg/mL
# T1 construct: host or cells: HeLa
# Experimental: (§1) For colocalization experiments, Jurkat and CD4^+ T cells were cytospun as described herein. HeLa and HeLa-CD4 cells were grown on chamber slides. The cells were fixed and stained with anti-CD4 and Salp15 as follows. Purified Salp15 was labeled using Alexa-488 with the Protein Labeling Kit (Molecular Probes) according to the manufacturer's instructions. Fixed cells were blocked with 5% normal serum and anti-CD16/CD32 (1:100) in PBS, incubated with 1 μg of monoclonal biotinylated anti-CD4 (L3T4) (BD Biosciences Pharmingen) followed by streptavidin594 staining. The cells were then stained with 20 μg/mL of Salp15488. For competition assays, cells were first blocked with 5% normal serum, incubated with either polyclonal anti-CD4 antibody, MT310, OKT4, normal rabbit IgG, Salp15 (0.5 mg/mL) or lysozyme (0.5 mg/mL) followed by staining with Salp15488. All samples were mounted in a GVA Mount (Zymed, San Francisco, Calif., U.S.A.) and visualized with an Olympus Confocal microscope equipped with Fluoview 3.0 software.
# [2] = biological target: T2, CD4 co-receptor (Homo sapiens, UniProt P01730); experiment: Co-immunoprecipitation with His-tagged Salp15 from Jurkat cell lysate; type: binding; details: anti-His
# T2 construct: 1-2×10^7 Jurkat, HeLa or HeLa-CD4 cells were lysed; endogenous in cells; host or cells: Jurkat
# Experimental: For coimmunoprecipitation, 1-2×10^7 Jurkat, HeLa or HeLa-CD4 cells were lysed in 20 mM HEPES pH 7.4 containing 150 mM NaCl, 1% Triton-X 100, 0.25% sodium deoxycholate, 25 mM NaF, 2 mM Na3VO4, 1 mM PMSF and protease inhibitors for 15 min on ice. One mg of protein equivalent of the cell lysate was mixed with 50 μg/mL of 6× histidine-tagged-Salp15 or 6×His-tagged Salp13 fused to thioredoxin (29 kD) as a control protein, (Anguita et al., 2002, Das et al., 2001) and immunoprecipitated using an anti-poly-histidine antibody conjugated to agarose, anti-CD4, anti-CD3, anti-CD28 or normal rabbit IgG overnight at 4° C. The immunoprecipitate was run on SDS-PAGE followed by immunoblotting with anti-poly His-HRP, anti-CD4, anti-CD3, anti-CD28 or anti-TCRβ.
# [3] = biological target: T1, CD4 on HeLa-CD4 cells; experiment: Salp15488 binding to HeLa-CD4 and HeLa cells (flow cytometry, confocal microscopy)
# Experimental: as §1
# Actin polymerization assay was performed as described earlier (Krishnan et al., 2004). […] The cells were washed, resuspended in PBS and analyzed for F-actin content on a FACSCalibur with CellQuest software (Beckton Dickinson, Mountain View, Calif., U.S.A.). […] The cells were washed twice with PBS and analyzed by flow cytometry.
# [4] = tested on: CD8+ cells; experiment: Salp15488 binding on cell surface by confocal microscopy; design: species or system mouse
# [5] = biological target: T3, HIV gp120 binding to CD4 (Homo sapiens, UniProt P01730); experiment: gp120-HRP binding to plate-coated sCD4 (D1-D2); details: 0.05, 0.5 and 5 uM Salp15
# T3 construct: coated with 0.05 uM sCD4 (D1-D2 domains)
# Experimental: Ninety-six (96) well plates were coated with 0.05 uM sCD4 (D1-D2 domains) in coating buffer (pH 9.6). The plates were washed 2× and blocked with 200 uL of PBS+10% FCS. Samples were then added containing gp120-HRP plus 0, 0.05, 0.5 and 5 uM Salp15 in PBS+10% FCS. KLH was used as negative control at 5 uM. The plates were incubated for 2 hours at room temperature and washed 4×, followed by incubation with horseradish peroxidase substrate and stop solution from KPL.
substance,measurement,setting,value
"Salp15: secreted salivary protein from Ixodes scapularis, SEQ ID NO: 2; recombinant His-tagged, produced in Drosophila S2 cells",Competition of Salp15488 binding to HeLa-CD4 cells by preincubation,[1],competed
same,Co-immunoprecipitation of CD4,[2],co-immunoprecipitated
same,Salp15 binding on untransfected HeLa cells,[3]; confocal microscopy,but not in untransfected cells
same,Salp15 binding to HeLa-CD4 cells compared to non-transfected controls,[3]; flow cytometry,increase
same,Staining of CD8+ cells,[4],no staining
same,Inhibition of gp120 binding to CD4,[5],concentration dependent inhibition

# From patent publication US8119589B2, “Modulation of CD4+ T cell responses by a tick saliva protein, Salp15 and polypeptides derived therefrom” (University of North Carolina at Charlotte, priority 2004, dated 2012)
